Laboratory results published in paper PMC11027793 (Molecular cell, 2022).
Like-named read-outs stand apart in the source and are kept apart here. Where no end group is shown, it is not given here. MBP = not defined here

B1: GST-Mios Ring (785–875) (domain or fragment, UniProt Q9NXC5 785-875, looked up)
chain: CALCLINMGTPVSSCPGGTKSDEKVDLSKDKKLAQFNNWFTWCHNCRHGGHAGHMLSWFRDHAECPVSACTCKCMQLDTTGNLVPAETVQP
B2: His-MBP-WDR59 Ring (924–974) (domain or fragment, UniProt Q6PJI9 924-974, looked up)
chain: {His-MBP}-CAICHVAVRGSSNFCLTCGHGGHTSHMMEWFRTQEVCPTGCGCHCLLESTF
modifications: cysteine pairing not given here; reading uncertain
B3: His6-tag UBE2D3 (enzyme)
chain: not shown
B4: Flag-Sestrin2 (pRK5-FLAG-Sestrin2) (natural protein, UniProt P58004 1-480, looked up)
chain: MIVADSECRAELKDYLRFAPGGVGDSGPGEEQRESRARRGPRGPSAFIPVEEVLREGAESLEQHLGLEALMSSGRVDNLAVVMGLHPDYFTSFWRLHYLLLHTDGPLASSWRHYIAIMAAARHQCSYLVGSHMAEFLQTGGDPEWLLGLHRAPEKLRKLSEINKLLAHRPWLITKEHIQALLKTGEHTWSLAELIQALVLLTHCHSLSSFVFGCGILPEGDADGSPAPQAPTPPSEQSSPPSRDPLNNSGGFESARDVEALMERMQQLQESLLRDEGTSQEEMESRFELEKSESLLVTPSADILEPSPHPDMLCFVEDPTFGYEDFTRRGAQAPPTFRAQDYTWEDHGYSLIQRLYPEGGQLLDEKFQAAYSLTYNTIAMHSGVDTSVLRRAIWNYIHCVFGIRYDDYDYGEVNQLLERNLKVYIKTVACYPEKTTRRMYNLFWRHFRHSEKVHVNLLLLEARMQAALLYALRAITRYMT
B5: Flag-Mios purified from HEK293T cells (natural protein, UniProt Q9NXC5 1-875, looked up)
chain: MSGTKPDILWAPHHVDRFVVCDSELSLYHVESTVNSELKAGSLRLSEDSAATLLSINSDTPYMKCVAWYLNYDPECLLAVGQANGRVVLTSLGQDHNSKFKDLIGKEFVPKHARQCNTLAWNPLDSNWLAAGLDKHRADFSVLIWDICSKYTPDIVPMEKVKLSAGETETTLLVTKPLYELGQNDACLSLCWLPRDQKLLLAGMHRNLAIFDLRNTSQKMFVNTKAVQGVTVDPYFHDRVASFYEGQVAIWDLRKFEKPVLTLTEQPKPLTKVAWCPTRTGLLATLTRDSNIIRLYDMQHTPTPIGDETEPTIIERSVQPCDNYIASFAWHPTSQNRMIVVTPNRTMSDFTVFERISLAWSPITSLMWACGRHLYECTEEENDNSLEKDIATKMRLRALSRYGLDTEQVWRNHILAGNEDPQLKSLWYTLHFMKQYTEDMDQKSPGNKGSLVYAGIKSIVKSSLGMVESSRHNWSGLDKQSDIQNLNEERILALQLCGWIKKGTDVDVGPFLNSLVQEGEWERAAAVALFNLDIRRAIQILNEGASSEKGDLNLNVVAMALSGYTDEKNSLWREMCSTLRLQLNNPYLCVMFAFLTSETGSYDGVLYENKVAVRDRVAFACKFLSDTQLNRYIEKLTNEMKEAGNLEGILLTGLTKDGVDLMESYVDRTGDVQTASYCMLQGSPLDVLKDERVQYWIENYRNLLDAWRFWHKRAEFDIHRSKLDPSSKPLAQVFVSCNFCGKSISYSCSAVPHQGRGFSQYGVSGSPTKSKVTSCPGCRKPLPRCALCLINMGTPVSSCPGGTKSDEKVDLSKDKKLAQFNNWFTWCHNCRHGGHAGHMLSWFRDHAECPVSACTCKCMQLDTTGNLVPAETVQP
B6: GST-fusion protein of full-length wild-type Mios (natural protein, UniProt Q9NXC5 1-875, looked up)
chain: B5 chain

Tests used:
Assay in all cases: pull-down
[1] = target: T1, Flag-WDR24 purified from HEK293T cells (UniProt Q96S15 1-790)
T1 sequence (looked up): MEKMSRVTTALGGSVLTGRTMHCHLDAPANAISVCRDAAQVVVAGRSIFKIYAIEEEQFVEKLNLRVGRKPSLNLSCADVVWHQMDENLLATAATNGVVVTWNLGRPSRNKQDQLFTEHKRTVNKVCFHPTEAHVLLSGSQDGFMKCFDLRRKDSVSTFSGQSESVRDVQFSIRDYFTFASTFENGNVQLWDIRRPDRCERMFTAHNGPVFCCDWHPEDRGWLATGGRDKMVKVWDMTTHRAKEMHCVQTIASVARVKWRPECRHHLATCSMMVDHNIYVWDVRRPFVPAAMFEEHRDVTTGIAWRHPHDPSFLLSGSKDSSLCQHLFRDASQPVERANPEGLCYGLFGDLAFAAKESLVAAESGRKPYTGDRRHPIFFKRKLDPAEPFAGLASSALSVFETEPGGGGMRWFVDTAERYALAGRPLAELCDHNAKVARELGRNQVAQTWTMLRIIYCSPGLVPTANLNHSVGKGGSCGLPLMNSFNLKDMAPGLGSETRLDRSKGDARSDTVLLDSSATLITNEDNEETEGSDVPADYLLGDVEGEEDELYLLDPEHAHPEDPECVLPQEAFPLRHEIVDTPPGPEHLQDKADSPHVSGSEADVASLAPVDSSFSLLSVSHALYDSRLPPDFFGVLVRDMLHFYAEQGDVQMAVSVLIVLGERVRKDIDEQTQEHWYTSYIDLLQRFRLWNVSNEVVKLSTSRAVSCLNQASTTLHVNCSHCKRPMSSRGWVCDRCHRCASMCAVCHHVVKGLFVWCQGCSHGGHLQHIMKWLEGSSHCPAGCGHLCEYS

[2] = target: T2, Flag-WDR59 purified from HEK293T cells (UniProt Q6PJI9 1-974)
T2 sequence (looked up): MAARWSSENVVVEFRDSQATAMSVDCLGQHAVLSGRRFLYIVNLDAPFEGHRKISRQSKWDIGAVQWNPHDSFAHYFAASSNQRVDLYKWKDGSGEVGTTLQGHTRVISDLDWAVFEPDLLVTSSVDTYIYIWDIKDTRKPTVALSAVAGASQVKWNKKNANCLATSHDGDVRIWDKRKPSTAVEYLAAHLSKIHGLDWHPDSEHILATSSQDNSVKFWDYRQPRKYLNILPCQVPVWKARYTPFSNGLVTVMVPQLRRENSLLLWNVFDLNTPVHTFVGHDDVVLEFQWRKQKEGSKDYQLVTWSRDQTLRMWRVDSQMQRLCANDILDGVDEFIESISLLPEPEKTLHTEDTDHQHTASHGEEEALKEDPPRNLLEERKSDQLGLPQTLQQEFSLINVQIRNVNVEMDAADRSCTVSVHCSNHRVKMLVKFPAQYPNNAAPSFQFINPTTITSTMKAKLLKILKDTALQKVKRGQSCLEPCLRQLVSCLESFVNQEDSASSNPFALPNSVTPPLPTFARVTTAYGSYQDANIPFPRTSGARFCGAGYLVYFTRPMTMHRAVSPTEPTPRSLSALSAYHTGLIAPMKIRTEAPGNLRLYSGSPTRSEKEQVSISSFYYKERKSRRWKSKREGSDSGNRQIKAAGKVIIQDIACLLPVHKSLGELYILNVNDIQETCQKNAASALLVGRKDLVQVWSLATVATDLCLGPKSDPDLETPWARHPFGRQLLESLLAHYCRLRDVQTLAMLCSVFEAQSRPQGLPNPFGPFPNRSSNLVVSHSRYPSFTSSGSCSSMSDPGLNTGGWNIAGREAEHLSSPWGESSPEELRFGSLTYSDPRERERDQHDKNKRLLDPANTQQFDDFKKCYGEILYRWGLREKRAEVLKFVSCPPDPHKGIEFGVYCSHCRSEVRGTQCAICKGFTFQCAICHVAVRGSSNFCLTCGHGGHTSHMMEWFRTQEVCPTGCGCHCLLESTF

GST-Mios Ring (785–875) = target: B1
[3] = target: T1, Flag-WDR24 purified from HEK293T cells; remark: listed apart in the source
[4] = target: T3, GST-WDR24 wild-type (full-length) (UniProt Q96S15 1-790)
T3 sequence (looked up): T1 sequence (looked up)

GST-WDR59 wild-type = target: T4, GST-WDR59 wild-type (UniProt Q6PJI9 1-974)
T4 sequence (looked up): T2 sequence (looked up)

B1: binds [1]; binds [2].

B2: binds (GST-Mios Ring (785–875)).

{His-MBP}-CAVCHHVVKGLFVWCQGCSHGGHLQHIMKWLEGSSHCPAGCGHLCEYS (domain or fragment, UniProt Q96S15 743-790, looked up, cysteine pairing not given here; reading uncertain) [His-MBP-WDR24 Ring (743–790)]: binds (GST-Mios Ring (785–875)).

B3: binds [3]; binds [4].

B4: binds [4].

B5: binds (GST-WDR59 wild-type).

B6: binds [2].
